Measurements reported in patent US8252338B2, “Synthetic LDL as targeted drug delivery vehicle” (The Regents of the University of California, priority 2005, dated 2012).
Each block holds one compound with its values, some of them ahead of it.

Assays:
HeLa cells = assay: Cell killing by MTT assay, HeLa cells; format: cell-based, human; settings: concentrations up to 50 μM
Protocol: (§1) sLDL-PO was added to HeLa cells as shown in FIG. 16 and to SF-767 glioblastoma multiforme tumor cells (shown in FIG. 17) at concentrations between 0.05 and 50 μM and cell killing was determined by the MTT assay.

SF-767 cells = assay: Cell killing by MTT assay, SF-767 cells; format: cell-based, human; settings: concentrations up to 10 μM
Protocol: as §1
Cells were grown as in Example 3.

[1] = Phospholipid binding of peptides, PC-cholate micelles, cholate dialysis; format: physicochemical; settings: overnight incubation, dialysis (cutoff 10,000 MW)
Protocol: The ability of the peptides to bind phospholipids was tested first. Phospholipid binding was used as a rapid screen for a peptide's ability to bind to the surface of a synthetic LDL-like nanoparticle. To make phospholipid complexes with peptides, egg yolk phosphatidylcholine (PC) and the cholate dialysis method were used similarly to what was previously employed to make synthetic nascent HDL particles (Segrest, J. P. et al., J. Lipid Res 33:141-166 (1992)). The PC-cholate micelles were incubated with the peptide overnight and then extensively dialyzed (dialysis membrane cutoff, 10,000 MW) to remove cholate and unbound peptide. The percent bound peptide, i.e., peptide that remains associated with the lipid micelles, was determined for each peptide and was 8%, 15% and 33%, for B-peptide, 11-A chimera and 18-A chimera, respectively. The B-peptide had poor lipid binding ability while the 11-mer peptide has low lipid binding compared to the 18-A chimera.

[2] = Peptide association with lipid microemulsion after dialysis; format: physicochemical; settings: 1.27 mg/ml peptide; PL:TO:CO 3:2:1; after extensive dialysis against Tris-saline buffer
Protocol: The 18-A chimera was utilized for making core-containing synthetic LDL. The procedure reported by Baille et al. (Baillie, G. et al., J Lipid Res 43:69-73 (2002)) was used with modifications. Microemulsions were formed using egg yolk phospholipid (PL), triolein (TO) and cholesteryl olein (CO) (mole ratio of 3:2:1) and 20 μM butylhydroxytoluene (BHT); the microemulsions were extruded through an Avanti miniextruder first using 100 nm polycarbonate filters followed by 30 nm polycarbonate filters. The lipid emulsions were incubated with 1.27 mg/ml 18-A chimera and lipid association determined after extensive dialysis against Tris-saline buffer to remove uncomplexed peptide. Approximately 85% of the added synthetic peptide remained associated with the lipid emulsions.
Characterization: Composition of particles was determined using the Markwell modification of the Lowry protein assay and enzymatic colorimetric assays for PL, TO and CO (Wako Kits). Size was determined by column chromatography using a Superose 6 fast protein liquid chromatography (FPLC) column. Samples were run at a flow rate of 0.5 mL/min and absorbance read at 280 nm. Referring now to FIG. 4, the composition of the synthetic LDL was characterized as 32% peptide, 68% lipid. 82%±9% of peptide (n=11) remained bound after dialysis. […]

[3] = Density distribution of lipidated 18-A chimera by sequential ultracentrifugation; format: physicochemical
Protocol: Studies were carried out to determine (1) whether the synthetic LDL represent a single population of particles and (2) whether the LDLR binding domain remains accessible after the peptide is associated with the lipid. To determine what types of synthetic LDL particles were generated, the lipidated 18-A chimera was subjected to sequential ultracentrifugation at density (d) 1.063 g/ml to isolate particles equivalent to, or less dense than, native LDL. Subsequently the solution was adjusted to d 1.21 g/ml to isolate particles in the d 1.063-1.21 g/ml range and those in the d>1.21 g/ml range. The latter particles are considered lipid-poor complexes while the d 1.063-1.21 particles are in the size and density range of high density lipoproteins (HDL). […] This was an unexpected finding but is very encouraging since smaller sized complexes will be better able to diffuse through the tumor mass than larger particles. The formation of small high density complexes is reproducible since it occurred with two separate batches of synthetic 18-A chimera complexes.
To determine the distribution of lipid complexes in various density classes, sequential ultracentrifugation techniques were employed (Lindgren, F. T. et al., In Blood Lipids and Lipoproteins: Quantification, Composition and Metabolism (Nelson, G. J., ed.) pp. 181-274, John Wiley, New York (1972)); this preparative procedure is routinely used in our laboratory and is the classical method for isolation of LDL and other lipoproteins. The first centrifugation was performed at d 1.006 g/ml to isolate large lipid complexes with little peptide; the second spin was done at 1.006-1.063 g/ml to isolate particles in the LDL.size and density range; the third spin at d 1.063-1.21 g/ml isolates particles in the HDL size and density range. The d>1.21 g/ml fraction was isolated to assess how much of the peptide is in the lipid-poor form. All ultracentrifugal isolations use the Beckman TL100 ultracentrifuge for rapid isolations (all fractions can be obtained within 24 hr). […]

initial PO added remained bound to the microemulsion after processing (PC:TO:CO:PO 3:2:1:0.5, centrifuged and dialyzed): 48±3%
increase in incorporation into microemulsion as compared to paclitaxel (equimolar amounts added to initial lipid mixture (FIG. 14A)): 4-5 fold
initial PO concentration at which incorporation appears to saturate (varying PO in the initial lipid mixture (FIG. 13)): around 0.33 mg/mL
Compound: CCCCCCCC/C=C\CCCCCCCC(=O)O[C@@H](C(=O)O[C@H]1C[C@@]2(O)[C@@H](OC(=O)c3ccccc3)[C@@H]3[C@]4(OC(C)=O)CO[C@@H]4C[C@H](O)[C@@]3(C)C(=O)[C@H](OC(C)=O)C(=C1C)C2(C)C)[C@@H](NC(=O)c1ccccc1)c1ccccc1 [Paclitaxel oleate]
HeLa cell killing (HeLa cells): ineffective
SF-767 cell killing (SF-767 cells): ineffective

Compound: DWLKAFYDKVAEKLKEAFRLTRKRGLKLA [18-A chimera]
percent bound peptide (peptide that remains associated with the lipid micelles) [1]: 33%
added synthetic peptide remaining associated with the lipid emulsions [2]: Approximately 85%
density distribution (percent) of 18-A chimera ([3]; d 1.063-1.21 g/ml (size and density range of HDL, small lipid particles)): 58%
density distribution (percent) of 18-A chimera ([3]; d < 1.063 g/ml): 13%
density distribution (percent) of 18-A chimera ([3]; d > 1.21 g/ml (lipid-poor)): 29%

Compound: PALEDLRQGLLPRLTRKRGLKL [11-A chimera]
percent bound peptide (peptide that remains associated with the lipid micelles) [1]: 15%

Compound: YKLEGTTRLTRKRGLKLATALS [B-peptide, reference compound]
percent bound peptide (peptide that remains associated with the lipid micelles) [1]: 8%
